This is an account of results in patent publication US20130079280A1 (MEDLMMUNE, published 2013).

The target of experiment [1] is T1, human TRAIL R2-Fc fusion protein (human, UniProt O14763 54-182, limits assumed, biotinylated in the competition ELISA of Example 3).
T1 construct: also called biotinylated TRAIL R2-Fc; soluble TRAIL R2-Fc; not shown: Fc part
The experiment can be described thus: competition ELISA: plate coated with F4 mod 1, human TRAIL R2-Fc, monomer as competitor. In general terms: ELISA stands for enzyme-linked immunosorbent assay.

The target in experiment [2] is T1, human TRAIL R2-Fc fusion protein. The experiment can be described thus: competition ELISA; F4 mod 1 coated plate, human TRAIL R2-Fc.
Experiment [3] shares this target. Description: competition ELISA: plate coated with F4 mod 1, 0.75 nM human TRAIL R2-Fc, purified monomer as competitor.
Experiment [4] shares this target. Description: competition ELISA; plate coated with A9(1C12), 0.75 nM biotinylated TRAIL R2-Fc. As to the method: Plates were blocked with PBS 0.1% Tween 20+10 mg/ml BSA. […] Absorbance was read at 450 nm.
The target of experiment [5] is T2, Human CD40L, recombinant (E. coli produced) (human, UniProt P29965 113-261, limits assumed, His-tagged (capture ELISA) or biotinylated (AlphaScreen)).
T2 construct: also called HuCD40L; huCD40L
T2 sequence (looked up): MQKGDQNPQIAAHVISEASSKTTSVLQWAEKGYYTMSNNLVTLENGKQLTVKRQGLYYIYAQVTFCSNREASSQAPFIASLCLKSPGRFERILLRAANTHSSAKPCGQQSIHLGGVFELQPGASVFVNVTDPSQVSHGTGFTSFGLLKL
The experiment can be described thus: capture ELISA: His-tagged construct captured from E. coli media on anti-His antibody, His-tagged HuCD40L preincubated with biotinylated anti-His antibody titrated, streptavidin-HRP/TMB. As for the experimental part: (§1) A 96-well MaxiSorb plate was coated with Qiagen anti-His antibody at 2 μg/ml overnight. The coated plate was blocked with PBS containing 0.1% v/v Tween-20 and 4% w/v skim milk powder (PBST 4% milk) for 1.5 hours. The coated plate was washed with PBST and diluted bacterial media (diluted 30-fold) containing soluble expressed proteins was added and plates were incubated at room temperature for 2 hours. […] The absorbance was read at 450 nm.

Experiment [6] addresses T3, cynomolgus TRAIL R2-Fc (cynomolgus monkey (Macaca fascicularis)).
T3 construct: the ELISAs used the Fc fusion; also called cyno TRAIL R2-Fc; cyno TRAIL-R2-Fc
Description: competition ELISA: plate coated with F4 mod 1, cyno TRAIL R2-Fc, monomer as competitor.

In experiment [7] the target is T3, cynomolgus TRAIL R2-Fc. Description: competition ELISA; F4 mod 1 coated plate, cyno TRAIL R2-Fc.
Experiment [8] deals with T3, cynomolgus TRAIL R2-Fc. Description: competition ELISA: plate coated with F4 mod 1, 0.75 nM cyno TRAIL R2-Fc, purified monomer as competitor.
Experiment [9] has as its target T4, TRAIL R2, recombinant (format not stated) (human, UniProt O14763 54-182, limits assumed, biotinylated in the ELISAs of paragraph 539 and paragraph 556).
T4 construct: also called biotinylated TRAIL R2; TRAIL R2 biotin
The experiment can be described thus: capture ELISA; Tn3 captured on anti-His, biotinylated TRAIL R2. As for the experimental part:
as §1

Experiment [10] addresses T1, human TRAIL R2-Fc fusion protein. The experiment can be described thus: capture ELISA: His-tagged construct captured from E. coli media on anti-His antibody, biotinylated TRAIL R2 (axis: TrailR2-Fc) titrated, streptavidin-HRP/TMB. As for the experimental part: as §1
Experiment [11] deals with T5, human TRAIL R2 on the cell surface (H2122, Colo205, Jurkat and other tumor cell lines) (human, UniProt O14763 56-440). The experiment can be described thus: cell-based or functional assay.
For experiment [12], the target named is T5, human TRAIL R2 on the cell surface …. Description: cell-based or functional assay. This is another data set of the same source.
Experiment [13] shares this target. Description: cell-based or functional assay. This is another data set of the same source.

Where a chain is given by its changes, count along the chain named. Like-named read-outs stand apart in the source and are kept apart here.

B1: F4, TRAIL R2-binding Tn3 monomer (designed binder)
chain: AIEVKDVTDTTALITWAKPWVDPPPLWGCELAYGIKDVPGDRTTIDLQQKHTAYSIGNLKPDTEYEVSLICFDPYGLKSRPAKETFTTGGGTLGHHHHHHHH
notes: also called clone F4; original F4
By IC50 is commonly meant the concentration that gives 50% inhibition. With B1, the half-maximal inhibitory concentration (IC50) in experiment [1] and in experiment [3] was 89 nM each time. Further, the “fold difference in binding among F4, F4 mod 1 and F4 mod 12” value (“fold difference in binding among F4” below) in [2] is ≤ 6 fold.

B2: A1 (1E11), monovalent TRAIL R2-specific Tn3 scaffold (designed binder)
chain: B1 chain with L77A, R80N
notes: His-tagged monomer expressed in E. coli; also called 1E11 monomer
B2: in experiment [4], the IC50 was 16 nM. Further, the binding result in experiment [5] is listed as “no binding (tested: 5.00E-02 ug/ml)”.

B3: F4 mod 1, cyno cross reactive TRAIL R2-binding Tn3 monomer (designed binder)
chain: B1 chain with D46G
notes: F4 with a D to G mutation two amino acids before the DE loop; also called F4 mod 1 monomer
B3: the half-maximal inhibitory concentration (IC50) amounted to 34 nM in the experiment with cynomolgus TRAIL R2-Fc [6], 15 nM in [1], 34 nM with cynomolgus TRAIL R2-Fc [8] and 15 nM in experiment [3]. Also, the “fold difference in binding between F4 mod 1 and F4 mod 12” value with cynomolgus TRAIL R2-Fc [7] is ≤ 2 fold. Moreover, the “fold difference in binding among F4” value in experiment [2] is ≤ 6 fold.

B4: 79, monovalent human CD40L-specific Tn3 (designed binder)
chain: IEVKDVTDTTALITWIPPHNADSSIIGCELTYGIKDVPGDRTTIDLYDVAFDYSIGNLKPDTEYEVSLICDTFYGFDSNPAKETFTTGGGTLGHHHHHHHH
notes: 8xHis-tagged, captured from E. coli media; also called 79 (79); clone 79
With B4, the binding result is reported as “no binding” in experiment [9] and “no binding (tested: 0.2 ug/ml)” in experiment [10].

B5: A2 (1E11), bivalent linear tandem Tn3 (designed binder)
chain: SGGGGSAIEVKDVTDTTALITWAKPWVDPPPLWGCELAYGIKDVPGDRTTIDLQQKHTAYSIGNLKPDTEYEVSLICFDPYGAKSNPAKETFTTGGGGSGGGGSGGGGSAIEVKDVTDTTALITWAKPWVDPPPLWGCELAYGIKDVPGDRTTIDLQQKHTAYSIGNLKPDTEYEVSLICFDPYGAKSNPAKETFTTGGGGSGGGGSGTLGHHHHHHHH
On to B5, for which, in [4], the IC50 was determined as 0.5 nM, the “fold higher affinity relative to the monomeric A1 protein” value lay in the range of 30 to 40 fold and the “fold lower IC50 than the monomer A1” value was ≥ 30 fold.

B6: A3 (1E11), tetravalent linear tandem Tn3 (designed binder)
chain: SGGGGSAIEVKDVTDTTALITWAKPWVDPPPLWGCELAYGIKDVPGDRTTIDLQQKHTAYSIGNLKPDTEYEVSLICFDPYGAKSNPAKETFTTGGGGSGGGGSGGGGSAIEVKDVTDTTALITWAKPWVDPPPLWGCELAYGIKDVPGDRTTIDLQQKHTAYSIGNLKPDTEYEVSLICFDPYGAKSNPAKETFTTGGGGSGGGGSGGGGSAIEVKDVTDTTALITWAKPWVDPPPLWGCELAYGIKDVPGDRTTIDLQQKHTAYSIGNLKPDTEYEVSLICFDPYGAKSNPAKETFTTGGGGSGGGGSGGGGSAIEVKDVTDTTALITWAKPWVDPPPLWGCELAYGIKDVPGDRTTIDLQQKHTAYSIGNLKPDTEYEVSLICFDPYGAKSNPAKETFTTGGGGSGGGGSGTLGHHHHHHHH
In the case of B6, in experiment [11], the “Maximum Inhibition %, H2122” value is 91%. Besides, in experiment [4], the IC50 came to 0.4 nM, the “fold higher affinity relative to the monomeric A1 protein” value fell in the range of 30 to 40 fold and the “fold lower IC50 than the monomer A1” value was ≥ 30 fold. Also, the “Maximum Inhibition %, H2122” value in experiment [12] turned out to be 91%. Besides, in experiment [13], the “potency in inhibiting H2122 cell viability relative to A9” value was ~150 fold.

B7: F4 mod 12, germline engineered cyno cross reactive TRAIL R2-binding Tn3 monomer (designed binder)
chain: SQIEVKDVTDTTALITWAKPWVDPPPLWGCELTYGIKDVPGDRTTIGLQQKHNQYSIGNLKPDTEYEVSLICFDPYGLKSRPAKETFTTGLGTLGHHHHHHHH
notes: also called F4 mod 12 monomer
With B7, the IC50 with cynomolgus TRAIL R2-Fc [6] was found to be 50 nM; in [1] it was 22 nM. For the same molecule, in the experiment with cynomolgus TRAIL R2-Fc [7], the “fold difference in binding between F4 mod 1 and F4 mod 12” value is ≤ 2 fold. Also, the “fold difference in binding among F4” value in experiment [2] was ≤ 6 fold.
